Reference: publication doi:10.1101/2021.01.26.428356

Target: Fc-tagged receptor-binding domain (RBD) of the SARS-CoV-2 spike (S) protein (SARS-CoV-2) (UniProt P0DTC2)
Assay: BLI; Octet Red96e; Fc-tagged RBD loaded onto the biosensor (streptavidin biosensors as printed), Fab in solution; 1x PBS pH 7.4, 0.01% w/v BSA, 0.002% v/v Tween 20; 60 s association, 60 s dissociation; 1:1 binding model

Substance | Kd
COV107-23 heavy chain paired with the light chain of COVD21-C8 (Fab) | > 1000 nM
COVD21-C8 heavy chain paired with the light chain of COV107-23 (Fab) | > 1000 nM
